Assay results published in article PMC8041291.

What was measured:
[1] = test system: Nterm (position 1, -----ECG---); test: potentiometry; conditions: 25 °C; 0.1 M (4 mM HNO3 + 96 mM KNO3); none (4 mM HNO3 / 96 mM KNO3); metal-free peptide, reduced thiols, argon atmosphere, 0.5-1.5 mM ligand
[2] = test system: Cterm (position 3, ---ECG-----); test: potentiometry; conditions: 25 °C; 0.1 M (4 mM HNO3 + 96 mM KNO3); none (4 mM HNO3 / 96 mM KNO3); metal-free peptide, reduced thiols, argon atmosphere, 0.5-1.5 mM ligand
[3] = test system: Glu1 (position 1, -----ECG---); test: potentiometry; conditions: 25 °C; 0.1 M (4 mM HNO3 + 96 mM KNO3); none (4 mM HNO3 / 96 mM KNO3); metal-free peptide, reduced thiols, argon atmosphere, 0.5-1.5 mM ligand
[4] = test system: Cys2 (position 2, ----ECG----); test: potentiometry; conditions: 25 °C; 0.1 M (4 mM HNO3 + 96 mM KNO3); none (4 mM HNO3 / 96 mM KNO3); metal-free peptide, reduced thiols, argon atmosphere, 0.5-1.5 mM ligand
Cys1 [5] = test: NMR; conditions: metal-free PC2; cited from earlier work
Nterm1 [6] = test: NMR; conditions: metal-free PC2; cited from earlier work
Cys2 [7] = test: NMR; conditions: metal-free PC2; cited from earlier work
Glu1 = test: potentiometry; conditions: 25 °C; 0.1 M (4 mM HNO3 + 96 mM KNO3); none (4 mM HNO3 / 96 mM KNO3); metal-free peptide, reduced thiols, argon atmosphere, 0.5-1.5 mM ligand
Cys1 [8] = test: potentiometry; conditions: 25 °C; 0.1 M (4 mM HNO3 + 96 mM KNO3); none (4 mM HNO3 / 96 mM KNO3); metal-free peptide, reduced thiols, argon atmosphere, 0.5-1.5 mM ligand
Cterm5 = test: potentiometry; conditions: 25 °C; 0.1 M (4 mM HNO3 + 96 mM KNO3); none (4 mM HNO3 / 96 mM KNO3); metal-free peptide, reduced thiols, argon atmosphere, 0.5-1.5 mM ligand
Nterm1 [9] = test: potentiometry; conditions: 25 °C; 0.1 M (4 mM HNO3 + 96 mM KNO3); none (4 mM HNO3 / 96 mM KNO3); metal-free peptide, reduced thiols, argon atmosphere, 0.5-1.5 mM ligand
Cys2 [10] = test: potentiometry; conditions: 25 °C; 0.1 M (4 mM HNO3 + 96 mM KNO3); none (4 mM HNO3 / 96 mM KNO3); metal-free peptide, reduced thiols, argon atmosphere, 0.5-1.5 mM ligand
Glu2 = test: potentiometry; conditions: 25 °C; 0.1 M (4 mM HNO3 + 96 mM KNO3); none (4 mM HNO3 / 96 mM KNO3); metal-free peptide, reduced thiols, argon atmosphere, 0.5-1.5 mM ligand

Glutathione (GSH, reduced) (not applicable (commercial reduced L-glutathione, Sigma-Aldrich))
pKa [1]: 9.65
pKa [2]: 3.64
pKa [3]: 1.95
pKa [4]: 8.76

ECECG
pKa (Cys1 [5]): 9.53
pKa (Nterm1 [6]): 10.01
pKa (Cys2 [7]): 9.40
pKa (Glu1): 2.43
pKa (Cys1 [8]): 9.69
pKa (Cterm5): 4.30
pKa (Nterm1 [9]): 10.25
pKa (Cys2 [10]): 8.59
pKa (Glu2): 3.17
